The target of this experiment is SARS-CoV-2-3Q-FL spike (without 2P) (SARS-CoV-2) (UniProt P0DTC2). In words: cryo-EM structure.

Usually stoichiometry N stands for a count of units in the complex or per binding partner. With “SARS-CoV-2-3Q-FL spike (without 2P) (from UniProt P0DTC2 14-1273) (natural protein)”, the stoichiometry N is 3.

(Values after publication PMC7857404.)
